Source: the Immune Epitope Database (IEDB)
pIC50, pKd: −log10 of the molar value.

Columns and labels:
[1] = target: HLA-A*03:01; test: IEDB peptide-MHC binding, purified MHC/competitive/fluorescence; ≥ and ≤ were set here for values at or beyond the usual limits of such assays
[2] = target: HLA-A*11:01; test: as above
[3] = target: HLA-A*02:17; test: IEDB peptide-MHC binding, purified MHC/competitive/radioactivity; filed as Kd, often an IC50 or EC50 that approximates it; ≥ and ≤ were set here for values at or beyond the usual limits of such assays
[4] = target: HLA-A*02:01; test: as above
[5] = target: HLA-B*53:01; test: as above; details: source organism: Dengue virus 2 Peru/IQT2913/1996
[6] = target: HLA-A*23:01; test: as above; details: source organism: Dengue virus 2 Peru/IQT2913/1996
[7] = target: HLA-B*15:01; test: as above
[8] = target: HLA-A*24:02; test: as above; details: source organism: Dengue virus 2 Peru/IQT2913/1996
[9] = target: HLA-B*15:01; test: IEDB peptide-MHC binding, purified MHC/competitive/fluorescence; ≥ and ≤ were set here for values at or beyond the usual limits of such assays
[10] = target: HLA-A*02:01; test: as above
[11] = target: HLA-A*02:03; test: IEDB peptide-MHC binding, purified MHC/competitive/radioactivity; filed as Kd, often an IC50 or EC50 that approximates it; ≥ and ≤ were set here for values at or beyond the usual limits of such assays
[12] = target: HLA-A*32:01; test: as above; details: source organism: Dengue virus 1 Singapore/S275/1990
[13] = target: HLA-A*02:06; test: as above
[14] = target: HLA-A*24:02; test: IEDB peptide-MHC binding, purified MHC/competitive/fluorescence; ≥ and ≤ were set here for values at or beyond the usual limits of such assays
[15] = target: HLA-A*30:02; test: IEDB peptide-MHC binding, purified MHC/competitive/radioactivity; filed as Kd, often an IC50 or EC50 that approximates it; ≥ and ≤ were set here for values at or beyond the usual limits of such assays; details: source organism: Dengue virus 3 Martinique/1243/1999
[16] = target: HLA-A*01:01; test: IEDB peptide-MHC binding, purified MHC/competitive/fluorescence; filed as Kd, often an IC50 or EC50 that approximates it; ≥ and ≤ were set here for values at or beyond the usual limits of such assays
[17] = target: HLA-B*58:01; test: IEDB peptide-MHC binding, purified MHC/direct/fluorescence; filed as Kd, often an IC50 or EC50 that approximates it; ≥ and ≤ were set here for values at or beyond the usual limits of such assays
[18] = target: HLA-B*57:01; test: as above
[19] = target: HLA-A*68:02; test: IEDB peptide-MHC binding, purified MHC/competitive/radioactivity; filed as Kd, often an IC50 or EC50 that approximates it; ≥ and ≤ were set here for values at or beyond the usual limits of such assays; details: source organism: Dengue virus 4 Philippines/H241/1956
[20] = target: HLA-B*08:01; test: as above; details: source organism: Dengue virus 1 Brazil/97-11/1997
[21] = target: HLA-B*46:01; test: IEDB peptide-MHC binding, purified MHC/competitive/fluorescence; filed as Kd, often an IC50 or EC50 that approximates it; ≥ and ≤ were set here for values at or beyond the usual limits of such assays; details: source organism: Listeria monocytogenes J0161
[22] = source organism: Zaire ebolavirus
[23] = source organism: Dengue virus 1 Singapore/S275/1990
[24] = source organism: Vaccinia virus WR
[25] = source organism: Dengue virus 2 Jamaica/1409/1983
[26] = source organism: Dengue virus 3 Martinique/1243/1999
[27] = source organism: Dengue virus 1 Brazil/97-11/1997
[28] = source organism: Dengue virus 1 Nauru/West Pac/1974
[29] = source organism: Sudan ebolavirus
[30] = source organism: Burkholderia thailandensis
[31] = source organism: Dengue virus 3 China/80-2/1980
[32] = source organism: Dengue virus 4 Philippines/H241/1956
[33] = source organism: Listeria monocytogenes

DETSSLPPL
pIC50 [1, 22]: ≤ 3.48 | pIC50 [2, 22]: ≤ 4.14

VLDDGIYRI
pKd [3, 23]: 6.23 | pKd [4, 23]: 8.26

IMLIPTVMAF
pKd [5]: 4.95 | pKd [6]: 7.09 | pKd ([7]; source organism: Dengue virus 2 Peru/IQT2913/1996): 8.57 | pKd [8]: 5.81

LRIQSLMEM
pIC50 ([9]; source organism: Vaccinia virus): ≤ 3.18

LIHQGMHMV
pIC50 [9, 22]: ≤ 4.06 | pIC50 [10, 22]: 6.35

NIAFLDESF
pKd [7, 24]: 6.09

IMAVGIVSI
pKd [11, 23]: 9.19 | pKd [12]: 8.00 | pKd [3, 23]: 5.72 | pKd [7, 23]: 7.51 | pKd [4, 23]: 8.67

AQMWTLMYF
pKd [13, 25]: 8.56 | pKd [7, 25]: 9.14

FLMTATLED
pIC50 ([9]; source organism: Variola virus): 4.54 | pIC50 ([10]; source organism: Variola virus): 5.59 | pIC50 ([14]; source organism: Variola virus): ≤ 4.11

ILALFLAHY
pKd [15]: 5.01 | pKd [7, 26]: 7.27

YIILFILFF
pKd [7, 24]: 5.28

FLIDGPETA
pKd [11, 25]: 7.89 | pKd [3, 25]: 5.77 | pKd [13, 25]: 6.42 | pKd [4, 25]: 7.76

LLFKTSAGV
pKd [11, 27]: 7.92 | pKd [3, 28]: 6.90 | pKd [4, 28]: 7.73

STSADQQSLY
pKd ([16]; source organism: Influenza A virus (A/Swine/Indiana/9K035/99 (H1N2))): 7.73

KAIDFLLRR
pIC50 [1, 29]: 5.24 | pIC50 [2, 29]: 5.56 | pIC50 [10, 29]: ≤ 4.00

KNSPGMVPL
pIC50 [1, 29]: ≤ 3.70 | pIC50 [2, 29]: 4.65 | pIC50 [10, 29]: ≤ 4.00

WADMPLHQW
pKd [17, 30]: 8.05 | pKd [18, 30]: 6.33

AIALGVATA
pIC50 [9, 22]: ≤ 3.63 | pIC50 [10, 22]: 6.06

KLNDWDFVV
pKd [11, 26]: 7.70 | pKd [3, 31]: 6.90 | pKd [13, 26]: 7.35

RTIMAVLFVV
pKd [19]: 6.36 | pKd [3, 32]: 6.05 | pKd [13, 32]: 7.71 | pKd [4, 32]: 8.74

NPGTYVYFY
pIC50 ([1]; source organism: Variola virus): ≤ 3.37 | pIC50 ([2]; source organism: Variola virus): 4.41 | pIC50 ([14]; source organism: Variola virus): 4.26

HQLWTTLLSL
pKd [20]: 5.70 | pKd [13, 27]: 7.04 | pKd [7, 27]: 8.92

QSKSSLLHA
pKd [7, 24]: 6.39

LSCSVCNSL
pKd [7, 24]: 6.41

SLAAIANQAV
pKd [11, 26]: 8.20 | pKd [3, 31]: 6.91

WVSFNQNLEY
pKd ([16]; source organism: Influenza A virus (A/goose/Guangdong/1/1996(H5N1))): 7.01

KVQRQIQVH
pIC50 [1, 22]: 4.75 | pIC50 [2, 22]: 4.80 | pIC50 [9, 22]: 4.35 | pIC50 [10, 22]: ≤ 3.67 | pIC50 [14, 22]: 4.81

FSIMIYFTF
pKd [17, 33]: ≤ 4.70 | pKd [18, 33]: ≤ 4.70 | pKd [21]: ≤ 4.70

ATTELRTFS
pIC50 [1, 22]: ≤ 3.91 | pIC50 [2, 22]: 4.95 | pIC50 [10, 22]: ≤ 3.69
